± gives the standard deviation.
Assay: protein stability index of a GFP-peptide fusion (GPS, HEK-293T) (PSI 1-6); higher = more stable
[1] = treatment: DMSO, c terminus: a fixed tail appended
[2] = treatment: MLN4924 1 uM, 8 h, c terminus: a fixed tail appended
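Also: 24-mer peptide tiles fused after GFP, lentivirally expressed, FACS-sorted into six equal bins by GFP/DsRed ratio, decoded by Illumina sequencing, PSI is the read-weighted mean bin number.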

| Sequence | protein stability index [1] | protein stability index [2] | protein stability index (treatment: DMSO, c terminus: native) | protein stability index (treatment: MLN4924 1 uM, 8 h, c terminus: native) |
| --- | --- | --- | --- | --- |
| PHFQPDASLLQPVTPLGTSRWRKI [NCF4] | 3.58 ± 0.3 | 3.73 ± 0.17 |  |  |
| PINYQGLRFSGVNDTDFRVYLLGN [POMT2] | 2.27 ± 0.23 | 2.46 ± 0.14 |  |  |
| PKQLRLINQPLPDLKNVKSKIGST [MAP2] | 3.9 ± 0.1 | 3.88 ± 0.19 |  |  |
| PKRCLKAREHFGTVKTHLTSLKTK [TSN] | 3.72 ± 0.32 | 3.88 ± 0.34 |  |  |
| PKTSGTRATSLGRPEEEEDELAHR [CPOX] | 5.42 ± 0.36 | 5.42 ± 0.19 |  |  |
| PLTLQVQRPLVSVTVSDASWVSEL [AUP1] | 2.67 ± 0.15 | 2.67 ± 0.25 |  |  |
| PMALLTIGSSSEKEIDDVIDEIIS [TFE3] | 2.98 ± 0.099 | 3.29 ± 0.095 |  |  |
| PNIAMTSGTVQPKQDAFANFANFS [CLINT1] | 3.61 ± 0.34 | 3.66 ± 0.14 |  |  |
| PNNKEIPSHHPTDPVELRRLNFQT [PTPRD] | 4.15 ± 0.18 | 4.35 ± 0.081 |  |  |
| PPALLPLYFQWYIFYFVIQRKKWV [FADS1] | 2.68 ± 0.059 | 2.73 ± 1.6 |  |  |
| PPGHHAEQDAACGFCFFNSVAVAA [HDAC6] | 2.88 ± 0.51 | 2.96 ± 0.68 |  |  |
| PPLPGKALKRQLPFRGDEGIFEES [SNX12] | 4.59 ± 0.21 | 4.74 ± 0.22 |  |  |
| PPLSHIMAQPLCIRALLNLHTDVG [NEK8] | 2.21 ± 0.41 | 2.03 ± 0.13 |  |  |
| PPPTTAPHKERYFDRVDENNPEYL [ADD1] | 5.06 ± 0.17 | 5.14 ± 0.17 |  |  |
| PPRSDTIANYELVYKDGEHGEEQR [PTPRD] | 5.48 ± 0.21 | 5.57 ± 0.14 |  |  |
| PPSSPRTLRLEKLGHPALSQEEGK [PPFIA4] | 5 ± 0.15 | 5.19 ± 0.31 |  |  |
| PQLAGKWQVLCMLSLCCWGWVSGQ [PCDHGC5] | 2.88 ± 0.93 | 2.85 ± 0.43 |  |  |
| PRNPTVRWGYVAMKFAQVFGCFFY [SOAT1] | 2.33 ± 0.2 | 2.18 ± 0.2 |  |  |
| PRVEYIDRPRCCLRGKECCINRFQ [BTBD1] | 2.42 ± 0.13 | 2.61 ± 0.28 |  |  |
| PSDLDSTGNSLNEPEEPSEIPERR [DLC1] | 5.64 ± 0.21 | 5.62 ± 0.23 |  |  |
| PSSLNSPSSYNCSQSILPLEHGSI [ESR2] | 3.15 ± 0.31 | 3.13 ± 0.12 |  |  |
| PTSPVYRGSSSGPSSPARVSTTPR [MTUS2] | 5 ± 0.25 | 4.95 ± 0.33 |  |  |
| PTTSHRLSRHDKAVQRFCLIGSLS [NETO1] | 2.28 ± 0.23 | 2.45 ± 0.48 |  |  |

| Sequence | protein stability index [1] | protein stability index [2] | protein stability index (treatment: DMSO, c terminus: native) | protein stability index (treatment: MLN4924 1 uM, 8 h, c terminus: native) |
| --- | --- | --- | --- | --- |
| PVDGARYRWQGRRWEPSGKAEPRL [TBX6] | 3.68 ± 0.41 | 3.86 ± 0.76 |  |  |
| PVEDSHTADISSHFQEAIDFIDCV [DUSP5] | 4.54 ± 0.21 | 4.44 ± 0.32 |  |  |
| PVPEQSALCQGLYFHINQTLREAH [FAM104A] | 2.46 ± 0.21 | 2.77 ± 0.28 |  |  |
| PWGVQGGQESEVPYKREEEALEER [PKD2L1] | 5.16 ± 0.37 | 5.56 ± 0.19 |  |  |
| PYMSIQPAEDPDDYDDGFSMKHTA [SMARCE1] | 4.88 ± 0.12 | 4.78 ± 0.21 |  |  |
| QAIEPQAIVQQVPAPSRMQMPQGN [SNX8] | 4.64 ± 0.25 | 4.75 ± 0.22 |  |  |
| QCWKSLFIDTYSDVGRYIDHYAAI [FBXO3] | 2.65 ± 0.48 | 2.8 ± 0.72 |  |  |
| QDLKLFLQEPGVFSPTPPQQFQPA [FCHSD1] | 3.26 ± 0.34 | 3.55 ± 0.55 |  |  |
| QDPEGKGEQEHSQQKEEEEEMAVV [CHGA] | 5.43 ± 0.34 | 5.69 ± 0.13 |  |  |
| QEAAQLDMLLEKLPQVAEEISGPL [FLOT1] | 4.81 ± 0.29 | 4.76 ± 0.18 |  |  |
| QFYRNLGKSGLRVSCLGLGTWVTF [KCNAB2] | 2.24 ± 0.86 | 2.2 ± 0.32 |  |  |
| QGAPASSFVYVNPEDGRIFAQRTF [PCDHGC5] | 2.57 ± 0.27 | 2.78 ± 0.35 |  |  |
| QGASWELQSLRPHDEDIKTTNVKS [ZNF396] | 5.14 ± 0.097 | 5.19 ± 0.21 |  |  |
| QGLIEDCQLALQQKRETLSPLCLI [KCTD13] | 2.47 ± 0.17 | 2.64 ± 0.25 |  |  |
| QGSRHWQKLREESAARVVLTSLLA [DUSP5] | 2.31 ± 0.25 | 2.44 ± 0.24 |  |  |
| QGTGYIPTEQVNELVALIPHSDQR [TMEM106C] | 4.73 ± 0.18 | 4.67 ± 0.18 |  |  |
| QGVCYLVLCEAAFPKKLAFAYLED [SEC22B] | 3.26 ± 0.27 | 3.05 ± 0.058 |  |  |
| QHESGQSSSRGSSHCDSPSPQEDG [BNIP3L] | 5.62 ± 0.36 | 5.5 ± 0.16 |  |  |
| QHHHHHHHHHGRDFLLRAASFDVC [RHOBTB2] | 2.55 ± 0.14 | 2.58 ± 0.2 |  |  |
| QKFDTLYAILDEKKSELLQRITQE [TRIM63] | 3.11 ± 0.095 | 3.21 ± 0.29 |  |  |
| QKHTEVETVDLVLKLKNKLLQADR [DENND6A] | 3.49 ± 0.33 | 3.45 ± 0.32 |  |  |
| QLAKELGATYLELHSLDDFYIGKY [RHOBTB3] | 2.56 ± 0.56 | 2.33 ± 0.27 |  |  |
| QLATSSFLLFLLTGIVSVAFLLLP [MOSPD3] | 3.5 ± 0.19 | 2.88 ± 0.54 |  |  |

| Sequence | protein stability index [1] | protein stability index [2] | protein stability index (treatment: DMSO, c terminus: native) | protein stability index (treatment: MLN4924 1 uM, 8 h, c terminus: native) |
| --- | --- | --- | --- | --- |
| QLEQPEKMPVLKAEASHYNSDLNN [RHOBTB3] | 4.83 ± 0.19 | 4.94 ± 0.15 |  |  |
| QLESLGLLAPGEQSLPCTERKPAA [KISS1] | 4.69 ± 0.18 | 4.73 ± 0.15 |  |  |
| QLIEEGYVGEPLVCEVQVHGGSLL [GFOD1] | 2.44 ± 0.15 | 2.46 ± 0.39 |  |  |
| QLKVVERTRTATMLCAASGNPDPE [PTPRD] | 5.16 ± 0.26 | 4.86 ± 0.38 |  |  |
| QLLKGRVDNISTLDSEIKKNSDGM [CD207] | 4.24 ± 0.16 | 4.23 ± 0.2 |  |  |
| QLPISSENDSTPTVSTSEVTSQQE [TAF7L] | 5.53 ± 0.28 | 5.5 ± 0.13 |  |  |
| QNLVYYRFHRARWGLEEEDFQPRE [P3H4] | 2.38 ± 0.17 | 2.25 ± 0.27 |  |  |
| QNYISQKEDASEFQILKYLFQIDV [MIA2] | 2.28 ± 0.21 | 2.25 ± 0.45 |  |  |
| QPFYHDDSYTATGYGRAPGGLSLH [JUNB] | 3.18 ± 0.39 | 3.36 ± 0.24 |  |  |
| QPIRGVEGSDYINASFIDGYRQQK [PTPRD] | 4.31 ± 0.27 | 4.37 ± 0.19 |  |  |
| QQELRELRRELELLGRERDRVQVE [PRPH] | 4.06 ± 0.52 | 4.39 ± 0.29 |  |  |
| QQFKQYSRHVTTRAALTYTSLEIT [M1AP] | 2.44 ± 0.18 | 2.6 ± 0.3 |  |  |
| QQNIPSTLLQDHENQRLFEMLGRK [WAS] | 4.32 ± 0.17 | 4.25 ± 0.24 |  |  |
| QQQQLTFTAALEHCRENAHDKIRP [SPACA9] | 4.1 ± 0.22 | 4.03 ± 0.16 |  |  |
| QQWFPSLELGHWLYQTELVENECY [TOR1AIP2] | 2.55 ± 0.54 | 2.34 ± 0.47 |  |  |
| QRLIVGNSALKDKEDQFGRTPLMY [INVS] | 3.05 ± 0.31 | 3.31 ± 0.35 |  |  |
| QSDTLEQREEHELVHVMERSLSPS [RAD54B] | 5.45 ± 0.26 | 5.33 ± 0.23 |  |  |
| QSNYDTKGKTAVDTVFRFDPRYNK [KLHL13] | 3.49 ± 0.23 | 4.17 ± 0.22 |  |  |
| QTPTKEELDAIIEEVDEDGSGTID [TNNC2] | 5.67 ± 0.44 | 5.16 ± 0.28 |  |  |
| QTSSSSSQSETSSAVSTPSPVTRT [DLC1] | 5.45 ± 0.22 | 5.28 ± 0.38 |  |  |
| QVPRSPVIKISYSTPQGKGEVVKI [PWWP2B] | 2.73 ± 0.26 | 2.58 ± 0.26 |  |  |
| QWLVSQLSAASPDTGHDSDKSDQS [TRAF3IP2] | 4.66 ± 0.16 | 4.73 ± 0.47 |  |  |
| QYNRSSNSNGGNLNSPPGPHSAKT [CDC14A] | 4.42 ± 0.19 | 4.33 ± 0.29 |  |  |

| Sequence | protein stability index [1] | protein stability index [2] | protein stability index (treatment: DMSO, c terminus: native) | protein stability index (treatment: MLN4924 1 uM, 8 h, c terminus: native) |
| --- | --- | --- | --- | --- |
| RALNSVPVIIAAVGTRQNEELPCT [RHOBTB3] | 3.39 ± 0.24 | 3.46 ± 0.16 |  |  |
| RAPKVLGTTLVVGLLAGVGYFAFM [GDAP1] | 3.66 ± 0.29 | 3.17 ± 0.27 |  |  |
| RCGKHFGTILNYLRDGAVPLPESR [KCTD10] | 2.27 ± 0.3 | 2.38 ± 0.32 |  |  |
| RCLIWGRKPKVIECSYTSADGQRH [DHCR7] | 2.61 ± 0.33 | 2.77 ± 0.33 |  |  |
| RDAAIKKLATEAGVEVIVRISHTL [CRY1] | 2.83 ± 0.92 | 2.62 ± 0.68 |  |  |
| RDAKAAMAGRLMIRKLVAEKLNIP [AASDHPPT] | 2.62 ± 0.28 | 2.79 ± 0.36 |  |  |
| RDEVRFFKGNKYWAVQGQNVLHGY [MMP1] | 2.35 ± 0.22 | 2.51 ± 0.14 |  |  |
| RDGLAEDLAALKQRLEEETRKRED [PRPH] | 5.33 ± 0.33 | 5.25 ± 0.27 |  |  |
| RDLEKQKEEVRAALEQREQDAVDQ [TRIM29] | 5.59 ± 0.08 | 5.66 ± 0.22 |  |  |
| RDVPESPQHAADTPKSGEPRVPEE [YJU2B] | 5.44 ± 0.19 | 5.53 ± 0.24 |  |  |
| RDYKIQASRTWCFYNTEDIKDWED [PTGFR] | 3.28 ± 0.36 | 3.68 ± 0.49 |  |  |
| REEEEQVRAHAPRGNAPPRGKGL [KCNG1] |  |  | 3.15 ± 1.3 | 3.68 ± 0.65 |
| REERLRRENEELSARYLSQCQEAE [FBF1] | 5.26 ± 0.29 | 4.97 ± 0.54 |  |  |
| REIKVTLVFEHVDQDLRTYLDKAP [CDK4] | 2.65 ± 0.56 | 2.68 ± 0.72 |  |  |
| REIQPTAILSLDQIKAIRGSNEYT [SPRY1] | 3.99 ± 0.29 | 4.02 ± 0.14 |  |  |
| RERPLNVFCDMETDGGGWLVFQRR [TNXB] | 3 ± 0.98 | 2.79 ± 0.48 |  |  |
| RERQRRLEVEREAEKKREAKQRAK [LRRC59] | 5.22 ± 0.29 | 5.43 ± 0.06 |  |  |
| RFLRAYREGALRAALQRSLAAALA [TRADD] | 2.27 ± 0.062 | 2.32 ± 0.18 |  |  |
| RFPESHLPIQTPGAFLRTCLLSSN [TLE6] | 2.71 ± 0.14 | 2.6 ± 0.26 |  |  |
| RGCGGTDIELDAARGDAVCTACGS [BRF1] | 4.9 ± 0.24 | 4.75 ± 0.26 |  |  |

From the supplement of paper PMC10567573
